Laboratory results: patent US20210095032A1 (SALUBRIS CHENGDU BIOTECH, published 2021)

Molecular target: T1, biotin-labeled human PD-1 Fc protein (human, biotin-labeled (site not stated))
T1 construct: also called PD-1-Fc-biotin
Experiment: capture ELISA

T1 sequence (chain, as listed by the source limits assumed): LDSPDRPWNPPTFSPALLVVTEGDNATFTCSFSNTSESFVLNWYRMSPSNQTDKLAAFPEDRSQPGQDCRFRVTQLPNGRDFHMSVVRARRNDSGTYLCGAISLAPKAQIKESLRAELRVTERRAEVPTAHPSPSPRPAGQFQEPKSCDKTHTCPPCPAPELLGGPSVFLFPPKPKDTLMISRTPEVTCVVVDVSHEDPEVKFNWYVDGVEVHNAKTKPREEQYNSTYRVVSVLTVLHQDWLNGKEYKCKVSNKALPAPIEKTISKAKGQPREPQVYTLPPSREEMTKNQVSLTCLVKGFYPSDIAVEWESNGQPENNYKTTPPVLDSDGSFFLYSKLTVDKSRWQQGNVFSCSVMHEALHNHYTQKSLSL

binding result: binds
B1: huD2H3-V13 (antibody, human IgG1, kappa, V domains shown)
VH: EVQLVQSGAEVKKPGSSVKVSCKSSGYTFTNYWMHWVRQAPGQGLEWIGAIFPRNSETNYNQKFKARATLTADTSTSTAYMELSSLRSEDTAVYFCTRNRYGLDYWGQGTLVTVSS
VL: DIVMTQSPDSLAVSLGERATINCRASESVSLHGTRLMHWYQQKPGQPPKLLIYLGSNLESGVPDRFSGSGSGTDFTLTISSLQAEDVAVYYCQQSIEDPWTFGQGTKLEIKR
notes: Humanized D2H3, human IgG1/kappa; No EC50 is printed for this variant; it appears only in the sentences about the group
